What was measured:
ParB [1] = target: T1, ParB (Pseudomonas aeruginosa, UniProt Q9HT12 1-290); test: EMSA; lowest of the wt sites in hierarchy; 10 mM Tris-HCl pH 7.5, 0.5 mM DTT, 50 mM KCl, 1 mM MgCl2, 20 ul, 6 pmol labelled DNA, 18 pmol nonspecific competitor (titrations) or 240 pmol ParB plus 18-180 pmol unlabelled parS2 (dissociation), 15 min 37 C; 5% PAGE in 0.5x TBE; settings: protein: recombinant; tags: His6 (pET28-derived pKLB28); chain copies: 2; label: 5'-Cy3 on strand 1; 5' overhang 4 nt at both ends
T1 sequence: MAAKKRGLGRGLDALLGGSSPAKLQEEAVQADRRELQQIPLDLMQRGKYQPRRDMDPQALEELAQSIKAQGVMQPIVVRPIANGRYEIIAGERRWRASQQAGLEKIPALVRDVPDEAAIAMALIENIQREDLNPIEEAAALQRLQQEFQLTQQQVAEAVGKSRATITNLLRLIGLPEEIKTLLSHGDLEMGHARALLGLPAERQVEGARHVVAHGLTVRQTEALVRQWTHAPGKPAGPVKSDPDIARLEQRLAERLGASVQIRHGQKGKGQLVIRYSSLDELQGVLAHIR

ParB [2] = target: T1, ParB; test: EMSA; second in hierarchy; competed by unlabelled parS2; 10 mM Tris-HCl pH 7.5, 0.5 mM DTT, 50 mM KCl, 1 mM MgCl2, 20 ul, 6 pmol labelled DNA, 18 pmol nonspecific competitor (titrations) or 240 pmol ParB plus 18-180 pmol unlabelled parS2 (dissociation), 15 min 37 C; 5% PAGE in 0.5x TBE; settings: protein: recombinant; tags: His6 (pET28-derived pKLB28); chain copies: 2; label: 5'-Cy3 on strand 1; 5' overhang 4 nt at both ends
ParB [3] = target: T1, ParB; test: EMSA; no significant difference from wt parS5; unlabelled parS2 competitor; 10 mM Tris-HCl pH 7.5, 0.5 mM DTT, 50 mM KCl, 1 mM MgCl2, 20 ul, 6 pmol labelled DNA, 18 pmol nonspecific competitor (titrations) or 240 pmol ParB plus 18-180 pmol unlabelled parS2 (dissociation), 15 min 37 C; 5% PAGE in 0.5x TBE; settings: protein: recombinant; tags: His6 (pET28-derived pKLB28); chain copies: 2; label: 5'-Cy5 on strand 1; 5' overhang 4 nt at both ends
ParB [4] = target: T1, ParB; test: EMSA; highest in affinity hierarchy; 10 mM Tris-HCl pH 7.5, 0.5 mM DTT, 50 mM KCl, 1 mM MgCl2, 20 ul, 6 pmol labelled DNA, 18 pmol nonspecific competitor (titrations) or 240 pmol ParB plus 18-180 pmol unlabelled parS2 (dissociation), 15 min 37 C; 5% PAGE in 0.5x TBE; settings: protein: recombinant; tags: His6 (pET28-derived pKLB28); chain copies: 2; label: 5'-Cy3 on strand 1; 5' overhang 4 nt at both ends
ParB [5] = target: T1, ParB; test: EMSA; hierarchy: below parS10, above parS5; 10 mM Tris-HCl pH 7.5, 0.5 mM DTT, 50 mM KCl, 1 mM MgCl2, 20 ul, 6 pmol labelled DNA, 18 pmol nonspecific competitor (titrations) or 240 pmol ParB plus 18-180 pmol unlabelled parS2 (dissociation), 15 min 37 C; 5% PAGE in 0.5x TBE; settings: protein: recombinant; tags: His6 (pET28-derived pKLB28); chain copies: 2; label: 5'-Cy3 on strand 1; 5' overhang 4 nt at both ends
ParB [6] = target: T1, ParB; test: EMSA; hierarchy: below parS1/4, equal to parS8, parS9; 10 mM Tris-HCl pH 7.5, 0.5 mM DTT, 50 mM KCl, 1 mM MgCl2, 20 ul, 6 pmol labelled DNA, 18 pmol nonspecific competitor (titrations) or 240 pmol ParB plus 18-180 pmol unlabelled parS2 (dissociation), 15 min 37 C; 5% PAGE in 0.5x TBE; settings: protein: recombinant; tags: His6 (pET28-derived pKLB28); chain copies: 2; label: 5'-Cy3 on strand 1; 5' overhang 4 nt at both ends; one mismatch as printed
ParB [7] = target: T1, ParB; test: EMSA; hierarchy: below parS1/4, equal to parS7, parS8; 10 mM Tris-HCl pH 7.5, 0.5 mM DTT, 50 mM KCl, 1 mM MgCl2, 20 ul, 6 pmol labelled DNA, 18 pmol nonspecific competitor (titrations) or 240 pmol ParB plus 18-180 pmol unlabelled parS2 (dissociation), 15 min 37 C; 5% PAGE in 0.5x TBE; settings: protein: recombinant; tags: His6 (pET28-derived pKLB28); chain copies: 2; label: 5'-Cy3 on strand 1; 5' overhang 4 nt at both ends
ParB [8] = target: T1, ParB; test: EMSA; hierarchy: below parS1/4, equal to parS7, parS9; 10 mM Tris-HCl pH 7.5, 0.5 mM DTT, 50 mM KCl, 1 mM MgCl2, 20 ul, 6 pmol labelled DNA, 18 pmol nonspecific competitor (titrations) or 240 pmol ParB plus 18-180 pmol unlabelled parS2 (dissociation), 15 min 37 C; 5% PAGE in 0.5x TBE; settings: protein: recombinant; tags: His6 (pET28-derived pKLB28); chain copies: 2; label: 5'-Cy3 on strand 1; 5' overhang 4 nt at both ends
ParB [9] = target: T1, ParB; test: EMSA; hierarchy: below parS7-9, above parS6; 10 mM Tris-HCl pH 7.5, 0.5 mM DTT, 50 mM KCl, 1 mM MgCl2, 20 ul, 6 pmol labelled DNA, 18 pmol nonspecific competitor (titrations) or 240 pmol ParB plus 18-180 pmol unlabelled parS2 (dissociation), 15 min 37 C; 5% PAGE in 0.5x TBE; settings: protein: recombinant; tags: His6 (pET28-derived pKLB28); chain copies: 2; label: 5'-Cy3 on strand 1; 5' overhang 4 nt at both ends
ParB [10] = target: T1, ParB; test: EMSA; no specific complex; nonspecific smearing at ParB >5 uM; 10 mM Tris-HCl pH 7.5, 0.5 mM DTT, 50 mM KCl, 1 mM MgCl2, 20 ul, 6 pmol labelled DNA, 18 pmol nonspecific competitor (titrations) or 240 pmol ParB plus 18-180 pmol unlabelled parS2 (dissociation), 15 min 37 C; 5% PAGE in 0.5x TBE; settings: protein: recombinant; tags: His6 (pET28-derived pKLB28); chain copies: 2; label: 5'-Cy5 on strand 1; blunt

B1: parS5 (dsDNA)
DNA 1: AATTCAAGCTTTGTTCTACATGGAACAG
DNA 2: TCGACTGTTCCATGTAGAACAAAGCTTG
Q: Does B1 bind (ParB [1])?
A: Result: binds

B2: parS1/parS4 (dsDNA)
DNA 1: AATTCAAGCTTTGTTCCACGTGGAACCG
DNA 2: TCGACGGTTCCACGTGGAACAAAGCTTG
Q: Does B2 bind (ParB [2])?
A: Result: binds

B3: parS5* (dsDNA)
DNA 1: AATTCAAGCTTTATTGTATATGGAGCAG
DNA 2: TCGACTGCTCCATATACAATAAAGCTTG
Q: Does B3 bind (ParB [3])?
A: Result: binds

B4: parS2/parS3 (dsDNA)
DNA 1: AATTCAAGCTTTGTTCCACGTGGAACAG
DNA 2: TCGACTGTTCCACGTGGAACAAAGCTTG
Q: Does B4 bind (ParB [4])?
A: Result: binds

B5: parS6 (dsDNA)
DNA 1: AATTCAAGCTTCGTTCCACGTGGAAGAG
DNA 2: TCGACTCTTCCACGTGGAACGAAGCTTG
Q: Does B5 bind (ParB [5])?
A: Result: binds

B6: parS7 (dsDNA)
DNA 1: AATTCAAGCTTTGTTCCACGAGGAACCG
DNA 2: TCGACCGTTCCTCGTGGAACAAAGCTTG
Q: Does B6 bind (ParB [6])?
A: Result: binds

B7: parS9 (dsDNA)
DNA 1: AATTCAAGCTTTGTTCCACGAGGAAGAG
DNA 2: TCGACTCTTCCTCGTGGAACAAAGCTTG
Q: Does B7 bind (ParB [7])?
A: Result: binds

B8: parS8 (dsDNA)
DNA 1: AATTCAAGCTTTGTTCCACGAGGCACAG
DNA 2: TCGACTGTGCCTCGTGGAACAAAGCTTG
Q: Does B8 bind (ParB [8])?
A: Result: binds

B9: parS10 (dsDNA)
DNA 1: AATTCAAGCTTTGTTCCACAGGGAACAG
DNA 2: TCGACTGTTCCCTGTGGAACAAAGCTTG
Q: Does B9 bind (ParB [9])?
A: Result: binds

B10: nonspecific control (dsDNA)
DNA 1: GATAGCTCTTTGCCATTAAC
DNA 2: GTTAATGGCAAAGAGCTATC
Q: Does B10 bind (ParB [10])?
A: Result: no binding
